Results from patent publication US20250243243A1, “DISRUPTION OF SONIC HEDGEHOG-SURF4 INTERACTION FOR CANCER TREATMENT” (The Hong Kong University of Science and Technology, priority 2022, published 2025).

Tests used:
GST-SURF4^49-60 = molecular target: T1, GST-SURF4^49-60 (Homo sapiens, UniProt O15260); test: Peptide binding assay: peptides immobilized on thiopyridone sepharose 6B beads, GST-SURF4^49-60 as prey, immunoblot; conditions: pull down, immunoblotting with anti-GST antibodies
T1 construct: N-terminal GST-tagged SURF4^49-60; made in house; host or cells: E. coli
Method: (§1) Immunoprecipitation was performed as described (27). Purification of GST-tagged ShhN^25-49 and GST-tagged […] was performed as described previously (54). GST pull down assays were performed as described previously (54). Peptide binding assay was performed as described previously (27).
(§2) Peptide binding assay was performed as described previously (59). Synthetic CW peptides ([…]; SEQ ID NO: 6), CW^MT peptides ([…]; SEQ ID NO: 9), SURF4^49-61 peptides ([…]; SEQ ID NO: 10), SURF4^49-60 peptides ([…]; SEQ ID NO: 12), or RRFR peptides ([…]; SEQ ID NO: 11) were purchased from GenScript and coupled to thiopyridone-Sepharose 6B beads (Sigma-Aldrich) via the added C-terminal cysteine residue. For binding experiments, 2 ? g purified GST-tagged SURF4^49-60 or Shh^25-49-GST was preincubated at 4° C. for 30 min in a total volume of […] HK buffer. After incubation, […] buffer containing around 5 ? l beads containing 5 nmol of peptides was added to the reaction mixture for 1 h at 4° C. The beads were washed four times with […] of HK buffer and analyzed by immunoblotting.

GST = molecular target: T2, GST (Schistosoma japonicum, UniProt P08515); test: Peptide binding assay: immobilized peptides, GST as prey, immunoblot; conditions: pull down, GST control prey
T2 construct: made in house; host or cells: E. coli
Method: as §1, §2

Shh^25-49-GST = molecular target: T3, Shh^25-49-GST (Mus musculus, UniProt Q62226); test: Peptide binding assay: immobilized SURF4 luminal peptides, Shh^25-49-GST as prey, immunoblot; set-up: species or system human; conditions: pull down, immunoblotting with anti-GST antibodies
T3 construct: C-terminal GST-tagged Shh^25-49; made in house; host or cells: E. coli
Method: as §1, §2

[1] = molecular target: T4, interaction between ShhN and SURF4 (Mus musculus, UniProt Q62226); test: GST pull down of SURF4-HA from HEK293T lysates by ShhN^25-49-GST in the presence of heparin; format: binding, human
T4 construct: Purified GST-tagged human ShhN^25-49 was incubated with lysates; made in house; host or cells: ShhN25-49-GST from E. coli; SURF4-HA in lysates of transfected HEK293T cells
Method: as §1
Purification of GST-tagged ShhN^25-49 and GST-tagged SURF4^49-60 was performed as described previously (58). GST pull down assays were carried out with 10 μl of compact GSH beads bearing around 5 ? g of GST-tagged ShhN^25-49. The beads were incubated with […] of 0.5 mg/ml of cell lysates from HEK293T cells transfected with HA-SURF4 in HKT buffer at pH 6.0 or 7.2 with mixing at 4° C. overnight. After incubation, the beads were washed three times with […] of HKT buffer and twice with […] of HK buffer, and the bound material was analyzed by immunoblotting.

T4 sequence (Q62226 25-49): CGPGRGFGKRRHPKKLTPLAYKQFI
T2 sequence (P08515 whole entry): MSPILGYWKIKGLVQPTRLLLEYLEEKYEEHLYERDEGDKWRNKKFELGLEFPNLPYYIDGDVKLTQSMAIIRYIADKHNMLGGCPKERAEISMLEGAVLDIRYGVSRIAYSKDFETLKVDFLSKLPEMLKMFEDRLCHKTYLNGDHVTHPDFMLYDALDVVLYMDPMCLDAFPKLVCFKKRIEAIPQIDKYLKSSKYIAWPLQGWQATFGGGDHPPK

CW(KR-AA) peptides: Alanine substituted mutant of the CW peptide, AAAHPAAC (SEQ ID NO: 9)
level of GST-SURF4^49-60 bound to immobilized peptides (GST-SURF4^49-60): bound more efficiently to the wild-type CW sequence than an alanine substituted mutant

RRFR peptides: Peptides corresponding to the first intracellular loop of Frizzled6, VRRFRYPERPC (SEQ ID NO: 11)
level of GST-SURF4^49-60 bound to immobilized peptides (GST-SURF4^49-60): significantly lower than that bound to the CW peptides

SURF4 luminal peptides: First luminal loop of SURF4, SEQRDYIDTTWNC (SEQ ID NO: 10)
binding of GST to immobilized peptides (GST): not GST interacts
interaction of Shh^25-49-GST with immobilized SURF4 luminal peptides (Shh^25-49-GST): interacts

heparin
inhibition of the interaction between ShhN and SURF4 ([1]; indicated concentrations of heparin): inhibited the interaction between ShhN and SURF4 in a concentration-dependent manner
inhibition of the ShhN-SURF4 interaction at pH 6.0 ([1]; pH 6.0): still inhibits the ShhN-SURF4 interaction
